Assay results as given in patent US20170355769A1 (AbbVie / Abbott, published 2017).
Numbering of substitutions follows the chain as printed.

T1: Human full length B7-H3 (human, UniProt Q5ZPR3 29-534)
T1 construct: On 3T12 fibroblasts expressing full length human B7-H3 or on NCI-H1650 cells; signal peptide residues 1-28 stated; also called huB7-H3; CD276
T1 sequence: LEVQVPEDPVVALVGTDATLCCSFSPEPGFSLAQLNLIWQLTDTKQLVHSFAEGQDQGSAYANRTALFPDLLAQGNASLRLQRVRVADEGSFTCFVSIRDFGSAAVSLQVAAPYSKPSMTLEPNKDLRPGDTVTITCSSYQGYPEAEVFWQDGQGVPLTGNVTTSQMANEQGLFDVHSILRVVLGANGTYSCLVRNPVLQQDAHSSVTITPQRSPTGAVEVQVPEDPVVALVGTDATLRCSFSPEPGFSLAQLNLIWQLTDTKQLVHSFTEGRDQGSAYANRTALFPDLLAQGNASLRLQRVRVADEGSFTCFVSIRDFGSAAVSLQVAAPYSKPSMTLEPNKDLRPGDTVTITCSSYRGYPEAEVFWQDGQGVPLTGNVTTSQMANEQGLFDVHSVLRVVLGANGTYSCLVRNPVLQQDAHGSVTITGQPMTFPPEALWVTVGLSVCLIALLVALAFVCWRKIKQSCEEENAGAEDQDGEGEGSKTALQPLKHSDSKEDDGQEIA

T2: hB7-H3 (ELISA antigen of Tables 17 and 20) (human, UniProt Q5ZPR3 29-466, limits assumed)
T2 sequence: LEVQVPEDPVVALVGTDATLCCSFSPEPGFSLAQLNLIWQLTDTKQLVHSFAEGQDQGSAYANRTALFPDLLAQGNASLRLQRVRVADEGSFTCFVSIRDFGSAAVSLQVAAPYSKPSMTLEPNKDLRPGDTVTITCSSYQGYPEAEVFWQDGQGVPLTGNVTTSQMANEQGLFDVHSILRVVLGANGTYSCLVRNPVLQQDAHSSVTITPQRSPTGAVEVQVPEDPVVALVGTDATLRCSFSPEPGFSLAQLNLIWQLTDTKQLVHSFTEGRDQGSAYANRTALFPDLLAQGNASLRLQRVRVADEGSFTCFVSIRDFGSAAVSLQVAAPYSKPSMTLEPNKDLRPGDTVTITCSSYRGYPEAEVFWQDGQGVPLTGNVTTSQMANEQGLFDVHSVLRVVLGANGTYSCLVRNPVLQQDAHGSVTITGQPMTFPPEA

B1: chAb3-CZ (antibody, IgG1, V domains shown)
VH: QVQLQQPGAELVKPGASVKLSCKASGYTFSSYWMHWVKQRPGQGLEWIGLIHPDSGSTNYNEMFKNKATLTVDRSSSTAYVQLSSLTSEDSAVYFCAGGGRLYFDYWGQGTTLTVSS
VL: DVVMTQTPLSLPVSLGDQASISCRSSQSLVHSNGDTYLRWYLQKPGQSPKLLIYKVSNRFSGVPDRFSGSGSGTDFTLKITRVEAEDLGVYFCSQSTHVPYTFGGGTKLEIK
modifications: synthon CZ on reduced interchain Cys
B2: huAb3v2.6-CZ (antibody, human IgG1, kappa, L234A L235A, V domains shown)
VH: EVQLVQSGAEVKKPGSSVKVSCKASGYTFSSYWMHWVRQAPGQGLEWIGLIHPESGSTNYNEMFKNRATLTVDRSTSTAYMELSSLRSEDTAVYYCAGGGRLYFDYWGQGTTVTVSS
VL: DIVMTQSPLSLPVTPGEPASISCRSSQSLVHSNQDTYLRWYLQKPGQSPQLLIYKVSNRFSGVPDRFSGSGSGTDFTLKISRVEAEDVGVYYCSQSTHVPYTFGGGTKVEIKR
modifications: synthon CZ on reduced interchain Cys
B3: huAb3v2-CZ (antibody, V domains shown)
VH: B2 VH with E54D
VL: DIVMTQSPLSLPVTPGEPASISCRSSQSLVHSNGDTYLRWYLQKPGQSPQLLIYKVSNRFSGVPDRFSGSGSGTDFTLKISRVEAEDVGVYYCSQSTHVPYTFGGGTKVEIK
modifications: synthon CZ on reduced interchain Cys
B4: huAb3v2.2-CZ (antibody, V domains shown)
VH: B2 VH with E54W
VL: B3 VL with G34R
modifications: synthon CZ on reduced interchain Cys
notes: ADC, DAR 0.7
B5: huAb3v2.8-CZ (antibody, V domains shown)
VH: B2 VH with E54I
VL: B3 VL with G34R
modifications: synthon CZ on reduced interchain Cys
notes: ADC, DAR 2.0
B6: huAb3v2.3-CZ (antibody, V domains shown)
VH: B2 VH with E54W
VL: B3 VL with G34Q
modifications: synthon CZ on reduced interchain Cys
notes: ADC, DAR 1.1
B7: huAb3v2.9-CZ (antibody, V domains shown)
VH: B2 VH with E54I
VL: B3 VL with G34Q
modifications: synthon CZ on reduced interchain Cys
notes: ADC, DAR 2.7
B8: huAb3v5-CZ (antibody, V domains shown)
VH: B2 VH with E54D
VL: B3 VL with I2V
modifications: synthon CZ on reduced interchain Cys
notes: ADC, DAR 3.1
B9: huAb3v6-CZ (antibody, V domains shown)
VH: B2 VH with E54D, M81V, Y95F
VL: B3 VL with I2V
modifications: synthon CZ on reduced interchain Cys
notes: ADC, DAR 3.3
B10: huAb3v1-CZ (antibody, V domains shown)
VH: B2 VH with I48M, E54D, A68V, L70I, V72A, R74K, G98R
VL: B3 VL
modifications: synthon CZ on reduced interchain Cys
notes: ADC, DAR 3.6
B11: huAb3v3-CZ (antibody, V domains shown)
VH: B2 VH with E54D, M81V, Y95F
VL: B3 VL with I2V, Y92F
modifications: synthon CZ on reduced interchain Cys
notes: ADC, DAR 3.6
B12: huAb13v9 (antibody, V domains shown)
VH: EVQLQESGPGLVKPSETLSLTCAVSGYSITSGYSWHWIRQPPGNGLEWMGYIHSSGSTNYNPSLKSRITISRDTSKNQFSLKLSSVTAADTAVYYCARYDDYFEYWGQGTTVTVSS
VL: DIQMTQSPSSLSASVGDRVTITCKASQNVGFNVAWYQQKPGKAPKLLIYSASYRYSGVPSRFSGSGSGTDFTLTISSLQPEDFATYFCQQYNWYPFTFGQGTKLEIK
notes: humanized IgG

Biological target: T1, Human full length B7-H3
Experiment: FACS, cell surface human B7-H3 (as Example 6)
Method: (§1) Cells were harvested from flasks when approximately 80% confluent using Gibco® Cell Dissociation Buffer. Cells were washed once in PBS/1% FBS (FACS buffer) then resuspended at 2.5×10⁶ cells/mL in FACS buffer. 100 μL of cells/well were added to a round bottom 96-well plate. 10 μL of a 10× concentration of mAb/ADC (final concentrations are indicated the figures). Wells were washed twice with FACS buffer and resuspended in 50 μL of secondary Ab (AlexaFluor 488) diluted in FACS buffer. The plate was incubated at 4° C. for one hour and washed twice with FACS buffer. Cells were resuspended in 100 μL of PBS/1% formaldehyde and analyzed on a Becton Dickinson LSRII flow cytometer. Data was analyzed using WinList flow cytometry analysis software.
Nine anti-B7-H3 chimeric antibodies were conjugated to the Bcl-xL inhibiting (Bcl-xLi) synthon CZ (Example 2.1) using conjugation Method A described below. The resulting ADCs (anti-B7-H3 antibodies conjugated to synthon CZ) were tested for binding to cell surface human B7-H3 by FACS (as described in Example 6) and for cell cytotoxicity in cell lines expressing B7-H3. […] Table 6 provides cell surface binding and cytotoxicity activity of anti-B7-H3 chimera ADCs against breast cancer cell HCC38 expressing human B7-H3.

**Q.** For B1, which EC50 is on record?
**A.** The EC50 was 0.65 nM.

Biological target: T3, Cynomolgous B7-H3 on cells (cynomolgus)
T3 construct: whole, on cells; also called cyB7-H3; cyno B7-H3
Experiment: FACS, 3T12 transfectants

**Q.** With B2 as the binder, how does the EC50 read?
**A.** Its EC50 is 3.31 nM.

**Q.** How did the EC50 turn out when B3 was run?
**A.** The EC50 was 2.87 nM.

**Q.** Which EC50 does the source give for B4 here?
**A.** Its EC50 is 3.68 nM.

**Q.** For B5, which EC50 is on record?
**A.** Its EC50 is 3.01 nM.

**Q.** With B6 as the binder, how does the EC50 read?
**A.** The EC50 was 4.03 nM.

**Q.** B7 was tested. Which EC50 did it give?
**A.** Its EC50 is 4.64 nM.

Biological target: T1, Human full length B7-H3
Experiment: FACS, 3T12 transfectants

**Q.** How did the EC50 turn out when B2 was run?
**A.** Its EC50 is 5.64 nM.

**Q.** How did the EC50 turn out when B3 was run?
**A.** The EC50 was 5.11 nM.

**Q.** For B4, which EC50 is on record?
**A.** The EC50 was 5.29 nM.

**Q.** Which EC50 does the source give for B5 here?
**A.** The EC50 was 3.94 nM.

**Q.** For B6, which EC50 is on record?
**A.** Its EC50 is 6.5 nM.

**Q.** B7 was tested. Which EC50 did it give?
**A.** Its EC50 is 6.16 nM.

Biological target: T1, Human full length B7-H3
Experiment: FACS (Example 6 method)
Method: as §1
These variants were further characterized for binding by SPR and as ADCs conjugated to the Bcl-xL inhibitor synthon (linker warhead) CZ. […] An ADC comprising chAb3 conjugated to synthon CZ was used as a control.

**Q.** With B3 as the binder, how does the EC50 read?
**A.** Its EC50 is 0.73 nM.

**Q.** Which EC50 does the source give for B8 here?
**A.** The EC50 was 0.85 nM.

**Q.** Which EC50 does the source give for B9 here?
**A.** Its EC50 is 1.78 nM.

**Q.** How did the EC50 turn out when B10 was run?
**A.** The EC50 was 1.45 nM.

**Q.** For B11, which EC50 is on record?
**A.** The EC50 was 1.68 nM.

**Q.** For B1, which EC50 is on record?
**A.** Its EC50 is 0.61 nM.

Biological target: T1, Human full length B7-H3
Experiment: cell-based or functional assay

**Q.** B2 was tested. Which “EC50 nM H1650 (tumor cell cytotoxicity)” value did it give?
**A.** The value was 0.4 nM.

Biological target: T2, hB7-H3 (ELISA antigen of Tables 17 and …)
Experiment: ELISA

**Q.** How did the EC50 turn out when B2 was run?
**A.** The EC50 was 0.09 nM.

**Q.** Which EC50 does the source give for B3 here?
**A.** The EC50 was 0.44 nM.

**Q.** With B4 as the binder, how does the EC50 read?
**A.** Its EC50 is 0.1 nM.

**Q.** For B5, which EC50 is on record?
**A.** Its EC50 is 0.14 nM.

**Q.** With B6 as the binder, how does the EC50 read?
**A.** Its EC50 is 0.11 nM.

**Q.** With B7 as the binder, how does the EC50 read?
**A.** The EC50 was 0.16 nM.

Biological target: T1, Human full length B7-H3
Experiment: FACS

**Q.** Does B12 bind?
**A.** Result: no binding
